Test system: K4 kissing-loop RNA reporter
Assay: apparent KD of K4 kissing-loop reporter; higher = weaker reporter binding
Conditions: Eterna round: R107
Procedure: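 RNA-MaP round R107: designed RNA switches with theophylline, tryptophan, arginine or FMN aptamers are transcribed on-chip within common flanks. They are titrated with a labelled K4 kissing-loop RNA reporter in RNA-MaP buffer (100 mM Tris pH 7.5, 80 mM KCl, 4 mM MgCl2), without ligand or with the indicated ligand. Median apparent KD per design.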

[1] = input ligand: theophylline 20 uM
[2] = input ligand: tryptophan 2.4 mM
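Also: bound reporter read as fluorescence of individual clusters on recovered sequencing chips by microscopy, with normalized cluster intensities fitted with a binding model.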

Sequence	apparent KD of K4 kissing-loop reporter (input ligand: FMN 200 uM)	apparent KD of K4 kissing-loop reporter (input ligand: arginine 13.2 mM)	apparent KD of K4 kissing-loop reporter (input ligand: none)	apparent KD of K4 kissing-loop reporter [1]	apparent KD of K4 kissing-loop reporter [2]
AGACUACCACACUGUCAAUAGACAGUGAACUAGGAUAUGCUGAUAAGCAGAAGGAGUGAUGUUCCGAGGUAGUCAAUAAAAUAAU [FmnAX 13 G66]	281 nM	246 nM	287 nM	334 nM	289 nM
GAAUAAUAUGUACCAGUGAUGUUGGUACAACGAGGACCGGUACGGCCGCCACUCGGAUACGAGUGGAUACAUCACUGACCAUUCG [(H1)-(H2)-(Trp1)-(Trp2)-(T)'-(H)'-(T)''_Design9]	326 nM	308 nM	368 nM	413 nM	252 nM
UGGCGAGUGAUGUUCGUUGUUGUAGUGUGCCGAGGACCGGUACGGCCGCCACUCGGGUUGGUUGUUGUUGUUGUUGUUGUUGUUG [whbob_SS_tryp_A]	127 nM	110 nM	112 nM	119 nM	76.1 nM
GCCGUACGCAUGGAUACCAGACUACCAUUGGAAACAAUGUGUCCGGUAGUGAUGUUACCUGUCCCUUGGCAGCCAUGCGUACGGC	649 nM	549 nM	702 nM	396 nM	655 nM
UGGAUAUAGUGAUGUUAUAUAGAGAUGGAUACCAGCUGAGAGAAUAGCCCUUGGCAGCCGAAAGAAGUAUCAUUAGAGAAGAAUG [ExTheophyl.Aj]	248 nM	188 nM	231 nM	271 nM	172 nM
GGAUAGGACAGAGGAUAUGGUAGCUAGGCAAGAAUAACUUGUCUAGCAUCCAUGAGGAGUGAUGUUCCAGAAGGCUGUCCUAUCG [FmnBX 5 - #SwitchBubble #StaticStem]	235 nM	145 nM	211 nM	150 nM	165 nM
AGUACAAUGGCGGCCGCCACUCAACGCAGAUCAAAGAUCUGCAUUCACUCAGUGAUGUUGAGUGAGAGGACCGGGCCUUUGUACA [Omei KL Tryp B SS B v1]	701 nM	581 nM	637 nM	580 nM	189 nM
GAUUCAGUGAUGUUGGAAGGCGAGCGGGAUACCAGCCAAGACUCAGGCCCUUGGCAGCCCACAUAUCCCAGGUAGAUAGUAGCUC [Same State - Theophylline A (Freestyle 12)]	168 nM	111 nM	142 nM	146 nM	132 nM
UCUGUUGUAUAUGAUACCAGCAGUGAGAGACAGGAAGUAUAGUGAUGUUAUAUGAGAGAAUGCCCUUGGCAGCGUGUGCGGGUGG [SSTheophylB.X]	138 nM	130 nM	165 nM	116 nM	99.1 nM
UGUGAGCUGUCGACAAAAGUCGACUAAAGCGAGGAUAUGACGAAAGUCAGAAGGCGUCAAUAAUGGAGUGAUGUUCCUGCUCACU [FmnA 9 G29]	306 nM	436 nM	596 nM	489 nM	406 nM
GCGAUUCAGUGAUGUUGGAAAUACAGGGAUACCAGCCGAGAAUAAGGCCCUUGGCAGCUUAAUAGGAAAGAACUAAGUAAGACGC [Theophylline A Same State; Euphoria Solution 2]	574 nM	569 nM	877 nM	616 nM	402 nM
UGUACCGAGUCAGGAUAUGGCGUCGAAAGACGAAUCGUAGUGAUGUUACGGAUCUGCGAAAGCAGUCCAGAAGGGACUUGGUACU [FmnBS 26 G37+C49]	125 nM	172 nM	163 nM	155 nM	182 nM
AAGUCAUAGGCAGGAUAUGCAUAGUAAUAAGGCAAUAUCUACGUAUAGAGUGAUGUUUUGUACCAGGCAGAAGGGCUACAUCAGU [FMN B Excl V9 (+4A/C)]	635 nM	407 nM	514 nM	554 nM	424 nM
UUUAUGAUGUCGGCCGCCACUGGAUUAAUAUGUGUGUAAUCUAGUUCUGAGUGAUGUUUAGAGUCCAGGACCGGGACAUUUGUUA [#11 K4 Tryptophan B Exclusion]	542 nM	373 nM	522 nM	649 nM	452 nM
AAACAUCACUGGGAGUGAUGUUCUCAGUGACGAGGACCGGUACGGCCGCCACUCGCGAGAGAUAUAAAUAAGUAAUGACAUCAUU [Excl Tryptophan A V1]	359 nM	334 nM	360 nM	357 nM	423 nM
AAAUAAAUCGGAGGAUAUCCUUCCCACGUCGAAGUACCGUGCUUGAUGGAGUGAUGUUCGAUCAGAGGAGAAGGCCGAUAAAUAA [Same State FMN B GF20]	1040 nM	732 nM	1040 nM	924 nM	777 nM
AAGCAGUCCCUCGAAGCCAUCGAAGAUGGGCGAGGACCGGUACGGCCGCCACUCGGAGUGAUGUUCCGAAGACUGCAAAAUAAAA [MatMod 3 - Jieux - Exclusion - Tryptophan A]	367 nM	316 nM	192 nM	273 nM	185 nM
AACCACUCGUUACAUCACUAUCGAGUGGAACGAGGACCGGUACGGCCGCCACUCGGUAUCUUGCAGUGAUGUUGCAAGAAAGAAU [KL-SSTryp-A #dotplot2 strengthened]	212 nM	199 nM	256 nM	164 nM	163 nM
UGAUAGGACAGAAGGAGCGGAAGUGAUGUUUCCAAUGGAUAAAAGGUGUCAAAGACACCCUUCCAGGUAGGUCGCUGUCCUAUCU [ArgBX 17 #Palindromic #SwitchBubble #StaticStem]	146 nM	160 nM	148 nM	141 nM	132 nM
UGCACGGGCUCGGCCGCCACUCCCGCGGGUCGAAAGGUCCGCUACUGAGUGAUGUUCGGUUGGAGGAGGACCGGGAGCCCGUGCA [#2 Exclusion - Tryptophan B Attempt #24 (HarryS)]	95.6 nM	92.9 nM	108 nM	69.7 nM	69.2 nM
UCUAAGGUCGAACCGGUAUGAUCACCGGAUACCAGAGGCGAAAGCCUCCCUUGGCAGCCGAGUGUAGUGAUGUUACACGGGUUCU	166 nM	147 nM	175 nM	310 nM	166 nM

Sequence	apparent KD of K4 kissing-loop reporter (input ligand: FMN 200 uM)	apparent KD of K4 kissing-loop reporter (input ligand: arginine 13.2 mM)	apparent KD of K4 kissing-loop reporter (input ligand: none)	apparent KD of K4 kissing-loop reporter [1]	apparent KD of K4 kissing-loop reporter [2]
GCCGUAGAUGGAAGGAGCGUGCCUUUCAGUUAUAGUGAUGUUAUAACCGAGGAACGGUUGGCACAGGUAGGUCGCCAUCUACGGC	178 nM	90.2 nM	109 nM	112 nM	121 nM
GCCAGUGAUGUUGGCGAACCAACGCAUGCAGAGGAUAUUCGUUCUGGAAGAAGGCUGCAGCGUUAUCAAACGCAGUGAUGUUGCG [Same State FMN A GF 26]	179 nM	134 nM	150 nM	165 nM	129 nM
GGCAUCCAUGGACCUAGUGAUGUUAGGUACCGAGGACCGGUACGGCCGCCACUCGGCCAUGGAUGCCGCAAUCGGAAACGAUUGC	406 nM	243 nM	408 nM	460 nM	345 nM
AAUAUAGUGAUGUUAUAUAAGAAGGAGUUACGAGGACCGGUACGGCCGCCACUCGAAACGAGUGAGGGCUUGGGAGAUUGGGCCC [SSTryptA.I]	404 nM	346 nM	444 nM	377 nM	264 nM
AAGGGCUAGGCGGCCGCCACUGGUCGUGUACACAUACAAACCAGUGAUGUUGGUAUUGUAUGCGACAGGACCGGGCCUAGCCGAA [Exclusion - Tryptophan B (Freestyle 28)]	280 nM	229 nM	323 nM	258 nM	481 nM
CCGCUACCCUCAGGAUAUUAAAUAUUAGUGAUGUUAAUAAACCGAUGGCGAAAGCCAUCGGUAUGUUAAGAAGGGAGGGUAGCGG	138 nM	847 nM	974 nM	949 nM	965 nM
UGGGUGUAGUGAUGUUAUAUAGAGAAUGAUACCAGCUUAGAGAGGAGCCCUUGGCAGCGUAGACGAGUAUCAUUGGAGGAGGAGG [#22 K4 Theophylline A Exclusion]	714 nM	924 nM	965 nM	724 nM	647 nM
AAAUUUAAUAUAUUUAAUUAAUUAUGUGAUACCAGACAUUAAUAAGUCCCUUGGCAGCACAAUGCAGUGAUGUUGCUUAUAAUAA [JR_SSTheophyA_Sub010]	85.7 nM	117 nM	86.9 nM	138 nM	70.3 nM
UGACUGGACUGAAGGAGCGCUUAACUCCUAGUGAUGUUAGGAUAACGAGACAAAGUCUCGAAGCAGGUAGGUCGCAGUCUAGUCU	157 nM	104 nM	118 nM	126 nM	128 nM
GUAGACAGACUGCGGGCCUAGUCUACAGACUAGGAUAUCAGGAAACUGAGAAGGAGUCUAGUUGCAGUGAUGUUGCAAGAAUAAU [KL-SSFMN-A26]	99.1 nM	115 nM	93.6 nM	114 nM	78.4 nM
GUACCAGUGAUGUUGGUAGGCGAGCGGGAUACCAGCCAAGACUCAGGCCCUUGGCAGCCCACAUAUCCCACGUAGGUAGUAGCUC [Same State - Theophylline A (Freestyle 17)]	96 nM	103 nM	105 nM	110 nM	92.9 nM
GAAAUCACGGAUGAUACCAGCCAGAACUCUCACAGUGAUGUUGUGCUUAAAUGAUUAGGAGGCCCUUGGCAGCAUACGCUAAUUU [theeternabot_sameState_KL_Theo_B_36]	324 nM	267 nM	313 nM	305 nM	226 nM
CGGAUGUAGUGAUGUUAUAUUAGAUGUAGACGAGGACCGGUACGGCCGCCACUCGUAACGGCUGCUAGCGCGUUGCGAGGUGUGC [ExTryptoA.Cl]	642 nM	611 nM	721 nM	570 nM	510 nM
CUGCCGUUUACAGAUACCAGACUAAUAACGGCAGCACAGAAUGUGAGUGAUGUUCGCAUAGUCCCUUGGCAGCUGUAUAACAGUA [Theo B Ex t3]	219 nM	199 nM	227 nM	287 nM	191 nM
AAGUGUCAUUAGACACAGACUACAAUAAACUAGGAUAUGCUGAUAAGCAGAAGGAGUGAUGUUCCUUUCAAGUAGUCAAUUAAAU [FmnAX 20 Mat Inspired #SwitchBubble #StaticStem #K4Late]	243 nM	120 nM	106 nM	128 nM	97.6 nM
AAUAAGGUCGCCGAUACCAGCGCAGGCAGAGCAAAGCUCUGCCGGGUAGUGAUGUUACCGCGCCCUUGGCAGCGGUGGCACGACC [Omei KL Theo B SS C v1]	579 nM	435 nM	340 nM	398 nM	275 nM
ACCAUCAAAGAUGGCCAGGACUCAACUGAUACCAGAGUGGAAACACUCCCUUGGCAGCAGGUGAGUGAUGUUCACGAGUCCUGGA [Omel KL Theo A SS B v8]	942 nM	786 nM	982 nM	522 nM	787 nM
GCAGGACGAGGAGGAGGAUGAAUUACUGAAGGAGCGCAUAUUGUUGCAGGUAGGUCGCGGUAAACAAGUAUAGUGAUGUUAUAUC [SSArgA.O]	770 nM	270 nM	877 nM	695 nM	416 nM
GGUAUGGAAGCAACAUCACAAGCCGUACCACGAGGACCGGUACGGCCGCCACUCGAUAACUUGCAGUGAUGUUGCAAGUAAGAAU [(T)''-(K)'-(T)'-(T1)-(T2)-(K1)-(K2)_Design6]	147 nM	80.5 nM	133 nM	117 nM	68.6 nM
AGGGUUAAUUAGUCUUUUUUCACAUUAAGUCAGGAUAUCGUAUUUUCGAGAAGGGACACAUGCUAGUGAUGUUAGCUAUUUCCCA [#02 K4 FMN A Exclusion]	77.3 nM	115 nM	90.6 nM	122 nM	86.2 nM
UGUAUGUGAUUUGAUACCAGACCAGCUGGUGGAAUCUGAGUGAUGUUCAGGUAGGUUUGGGUCCCUUGGCAGCAAAUCGCAUACU [KL-SSTheoB27]	203 nM	145 nM	182 nM	181 nM	170 nM

Source: the supplement of paper PMC9170038
